Assay [1] deals with T1, human C-C chemokine receptor type 8 (hCCR8) (human, UniProt P51685 1-355). The assay is described as follows: cell-based or functional assay.
Assay [2] deals with T1, human C-C chemokine receptor type 8 …. Put plainly: KinExA, hCCR8-expressing HEK293 cells. The protocol:
(§1) Humanized antibodies 504E12D8D12-HC1+LC1 and 504E12D8D12-HC1+LC1 (G34A) were tested by the Kinetic Exclusion Assay (KinExA, Sapidyne Instruments) to determine the affinity of binding to hCCR8-overexpressing cells. Briefly, polystyrene particles (#442178, Sapidyne Instruments) were coated with goat anti-human IgG Fc-specific Fab fragment (#109-007-008, Jackson ImmunoResearch Lab) according to the manufacturer's protocol. The antibodies were incubated with serial dilutions of hCCR8-expressing HEK293 cells at room temperature overnight by gently rotating to achieve equilibrium. The final antibody concentrations were adjusted to 0.05 nM and 1 nM, respectively. The supernatants were collected and run on KinExA 3200 (Sapidyne Instruments), and the antibody was captured by the coated polystyrene particles. The captured antibody was detected with Alexa Fluor 647-conjugated goat anti-human IgG (H+L) antibody (#109-605-003, Jackson ImmunoResearch Lab). Data was recorded and analyzed using KinExA Pro software (version 4.3.20).

Assay [3] addresses T2, biotinylated recombinant human CTLA-4-Fc chimera (#786704, BioLegend) (human, UniProt P16410 37-162, biotinylated).
T2 construct: Bought reagent; Fc part of the bought chimera not given
T2 sequence (looked up): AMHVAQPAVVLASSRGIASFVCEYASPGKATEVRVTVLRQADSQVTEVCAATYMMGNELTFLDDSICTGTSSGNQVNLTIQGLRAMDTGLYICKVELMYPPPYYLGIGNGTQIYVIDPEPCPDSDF
The assay is described as follows: flow cytometry: hCCR8-expressing HEK293 cells pre-loaded with the antibody, washed, incubated with biotinylated human CTLA-4-Fc, detected with PE-streptavidin [panel B]. The protocol:
(§2) Bispecific antibodies FP578-01 and FP578-02 and anti-hCCR8 antibodies 504E12D8D12-HC1+LC1 (G34A) and 504E12D8D12-HC1+LC1 were incubated with hCCR8-expressing HEK293 cells for 1 hour at 4° C. The cells were washed and then incubated with biotinylated recombinant human CTLA-4-Fc chimera (#786704, BioLegend) for 1 hour at 4° C. After the cells were thoroughly washed, CTLA-4 was detected with phycoerythrin (PE)-conjugated streptavidin (#405203, BioLegend) by flow cytometry.
A general note: A flow cytometer gives signals particle by particle.

For assay [4], the target named is T2, biotinylated recombinant human …. Put plainly: flow cytometry: hCCR8-expressing HEK293 cells pre-loaded with the antibody, washed, incubated with biotinylated human CTLA-4-Fc, detected with PE-streptavidin [panel A]. The protocol:
as §2

In assay [5] the target is T1, human C-C chemokine receptor type 8 …. The assay is described as follows: cell-based or functional assay. This is another data set of the same source.
The target is the same in assay [6]. Put plainly: KinExA, hCCR8-expressing cells. The protocol:
as §1
The affinity of bispecific antibodies FP578-01 and FP578-02 were determined by the kinetic exclusion assay as described above.

The target in assay [7] is T2, biotinylated recombinant human …. The assay is described as follows: flow cytometry: hCCR8-expressing HEK293 cells pre-loaded with the antibody, washed, incubated with biotinylated human CTLA-4-Fc, detected with PE-streptavidin [panel C]. The protocol: as §2
The target is the same in assay [8]. Put plainly: flow cytometry: hCCR8-expressing HEK293 cells pre-loaded with the antibody, washed, incubated with biotinylated human CTLA-4-Fc, detected with PE-streptavidin [panel D]. The protocol:
as §2

T1 sequence (P51685 whole entry): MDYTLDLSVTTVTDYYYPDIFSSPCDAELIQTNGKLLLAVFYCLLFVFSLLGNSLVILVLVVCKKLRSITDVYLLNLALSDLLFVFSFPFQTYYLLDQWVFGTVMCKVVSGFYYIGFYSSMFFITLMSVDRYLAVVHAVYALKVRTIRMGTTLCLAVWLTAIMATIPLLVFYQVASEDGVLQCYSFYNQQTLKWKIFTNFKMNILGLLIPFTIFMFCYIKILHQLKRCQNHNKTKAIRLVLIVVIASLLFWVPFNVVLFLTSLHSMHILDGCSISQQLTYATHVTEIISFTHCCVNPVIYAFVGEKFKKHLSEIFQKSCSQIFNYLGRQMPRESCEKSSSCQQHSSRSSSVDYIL

B1: humanized antibody 504E12D8D12-HC1+LC1 (antibody, human IgG1, kappa, V domains shown)
VH: EVQLVESGGGLVQPGGSLKLSCAASGFSFNTYAMNWVRQASGKGLEWVGRIRTKSNNYATYYAASVKDRFTISRDDSKNTAYLQMNSLKTEDTAVYYCTRGGSGLNYVRYFDVWGQGTTVTVSS
VL: DIVMTQTPPSLPVNPGEPASISCRSSKSLLHSNGNTYLYWYLQKPGQSPQLLIYRMSNLASGVPDRFSGSGSGSDFTLKISWVEAEDVGVYYCMQHLEYPFTFGGGTKLEIKR
Take B1: the “IC50 (nM), antagonist activity measured by calcium flux assay” value in assay [1] was 8.6 nM. The same molecule yielded a Kd in assay [2] of 0.072 nM. The binding result in assay [3] was “no binding”.

B2: humanized antibody 504E12D8D12-HC1+LC1(G34A) (antibody, human IgG1, kappa, V domains shown)
VH: EVQLVESGGGLVQPGGSLKLSCAASGFSFNTYAMNWVRQASGKGLEWVGRIRTKSNNYATYYAASVKDRFTISRDDSKNTAYLQMNSLKTEDTAVYYCTRGGSGLNYVRYFDVWGQGTTVTVSS
VL: DIVMTQTPPSLPVNPGEPASISCRSSKSLLHSNANTYLYWYLQKPGQSPQLLIYRMSNLASGVPDRFSGSGSGSDFTLKISWVEAEDVGVYYCMQHLEYPFTFGGGTKLEIKR
Regarding B2, the “IC50 (nM), antagonist activity measured by calcium flux assay” value in assay [1] came to 14.4 nM. Binding in assay [2] was characterised by a dissociation constant (Kd) of 0.072 nM. For the same molecule, the binding result in assay [4] is “no binding”.

B3: bispecific antibody FP578-01 (CCR8/CTLA-4) (bispecific antibody, human IgG1, kappa)
heavy: not shown
light: DIVMTQTPPSLPVNPGEPASISCRSSKSLLHSNANTYLYWYLQKPGQSPQLLIYRMSNLASGVPDRFSGSGSGSDFTLKISWVEAEDVGVYYCMQHLEYPFTFGGGTKLEIKRTVAAPSVFIFPPSDEQLKSGTASVVCLLNNFYPREAKVQWKVDNALQSGNSQESVTEQDSKDSTYSLSSTLTLSKADYEKHKVYACEVTHQGLSSPVTKSFNRGEC
On to B3, for which the “IC50 (nM), antagonist activity measured by β-arrestin assay” value in assay [5] stood at 4.26 nM. Besides, the Kd in assay [6] is 0.102 nM. Further, the binding result in assay [7] is given as “binds”.

B4: bispecific antibody FP578-02 (CCR8/CTLA-4) (bispecific antibody, human IgG1, kappa)
heavy: not shown
light: DIVMTQTPPSLPVNPGEPASISCRSSKSLLHSNGNTYLYWYLQKPGQSPQLLIYRMSNLASGVPDRFSGSGSGSDFTLKISWVEAEDVGVYYCMQHLEYPFTFGGGTKLEIKRTVAAPSVFIFPPSDEQLKSGTASVVCLLNNFYPREAKVQWKVDNALQSGNSQESVTEQDSKDSTYSLSSTLTLSKADYEKHKVYACEVTHQGLSSPVTKSFNRGEC
B4: the “IC50 (nM), antagonist activity measured by β-arrestin assay” value in assay [5] was 3.6 nM. Moreover, in assay [6], binding was characterised by a dissociation constant (Kd) of 0.104 nM. Besides, the binding result in assay [8] is reported as “binds”.

Usually Kd stands for the constant that tells how readily two partners part at equilibrium.

(Values after patent publication US20260109770A1 (REMD BIOTHERAPEUTICS, published 2026).)
